# Laboratory results: patent publication US20250129145A1 (Ablynx, published 2025)
# How the values were obtained:
# human serum albumin [1] = biological target: T1, human serum albumin (human, UniProt P02768 25-609); assay: SPR ProteOn XPR36, HSA immobilized (GLC sensor), pH 6.0, Langmuir 1:1 fit
# T1 construct: Bought protein; also called HSA
# Experimental: (§1) In a first experiment, the affinities of monovalent (ALB00223) and a bivalent ALB23002 construct (T032200003) for human and mouse serum albumin (HSA and MSA, respectively) at pH 6.0 and pH 7.4 were determined on a ProteOn XPR36 instrument (Bio-rad Laboratories, Inc.). HSA or MSA (HSA: Sigma-Aldrich—Sigma, Cat No. A8763; MSA: Albumin Bioscience, Cat No. 2601) was immobilized via amine coupling on a GLC sensor (short matrix, normal capacity). The constructs were injected at 6 different concentrations (between 0.95 and 500 nM) and allowed to associate for 120 s at 45 μL/min and dissociate for 600 s. Evaluation of the sensorgrams was based on the Kinetic Langmuir 1:1 (simultaneous ka/kd) fit.
# human serum albumin [2] = biological target: T1, human serum albumin; assay: SPR ProteOn XPR36, HSA immobilized (GLC sensor), pH 7.4, Langmuir 1:1 fit
# Experimental: as §1
# mouse serum albumin [3] = biological target: T2, mouse serum albumin (mouse, UniProt P07724 25-608); assay: SPR ProteOn XPR36, MSA immobilized (GLC sensor), pH 6.0, Langmuir 1:1 fit
# T2 construct: Bought protein; also called MSA
# T2 sequence (P07724 25-608 limits assumed): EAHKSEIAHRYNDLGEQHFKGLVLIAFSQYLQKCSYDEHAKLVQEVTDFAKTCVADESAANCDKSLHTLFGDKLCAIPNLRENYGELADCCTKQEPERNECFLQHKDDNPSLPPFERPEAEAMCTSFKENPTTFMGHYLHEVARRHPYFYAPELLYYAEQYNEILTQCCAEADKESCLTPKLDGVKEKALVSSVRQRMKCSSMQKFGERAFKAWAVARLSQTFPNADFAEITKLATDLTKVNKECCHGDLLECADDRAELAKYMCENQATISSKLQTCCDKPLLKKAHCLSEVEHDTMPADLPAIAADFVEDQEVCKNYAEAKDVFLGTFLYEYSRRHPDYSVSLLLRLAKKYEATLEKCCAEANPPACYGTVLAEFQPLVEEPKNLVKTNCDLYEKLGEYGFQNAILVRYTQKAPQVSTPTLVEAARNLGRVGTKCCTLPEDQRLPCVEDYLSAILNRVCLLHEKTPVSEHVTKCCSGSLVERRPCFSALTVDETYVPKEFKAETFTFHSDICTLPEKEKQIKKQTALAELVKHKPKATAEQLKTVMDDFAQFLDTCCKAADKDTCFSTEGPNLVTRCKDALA
# Experimental: as §1
# mouse serum albumin [4] = biological target: T2, mouse serum albumin; assay: SPR ProteOn XPR36, MSA immobilized (GLC sensor), pH 7.4, Langmuir 1:1 fit
# Experimental: as §1
# human serum albumin [5] = biological target: T1, human serum albumin; assay: SPR Biacore 8K+, HSA immobilized (C1 chip), pH 6.0, bivalent analyte fit (KD1)
# Experimental: (§2) The constructs containing a 9GS and 35GS linker between the albumin-binding building blocks were selected for further characterization. The affinities of the purified ISVD expression constructs for human and mouse serum albumin (HSA and MSA, respectively) at pH 6.0 and pH 7.4 were determined on a Biacore 8K+ instrument. HSA or MSA (HSA: Sigma-Aldrich-Sigma, Cat No. A8763; MSA: Albumin Bioscience, Cat No. 2601) was immobilized on a Series S Sensor Chip C1. The fusion proteins as described in Table 7 above were injected at 9 different concentrations (between 0.6 and 2000 nM) and allowed to associate for 120 s at 30 μL/min and dissociate for 600 s. Evaluation of the sensorgrams was based on the bivalent analyte fit.
# human serum albumin [6] = biological target: T1, human serum albumin; assay: SPR Biacore 8K+, HSA immobilized (C1 chip), pH 6.0, bivalent analyte fit (ka1)
# Experimental: as §2
# human serum albumin [7] = biological target: T1, human serum albumin; assay: SPR Biacore 8K+, HSA immobilized (C1 chip), pH 6.0, bivalent analyte fit (kd1)
# Experimental: as §2
# human serum albumin [8] = biological target: T1, human serum albumin; assay: SPR Biacore 8K+, HSA immobilized (C1 chip), pH 7.4, bivalent analyte fit (KD1)
# Experimental: as §2
# human serum albumin [9] = biological target: T1, human serum albumin; assay: SPR Biacore 8K+, HSA immobilized (C1 chip), pH 7.4, bivalent analyte fit (ka1)
# Experimental: as §2
# human serum albumin [10] = biological target: T1, human serum albumin; assay: SPR Biacore 8K+, HSA immobilized (C1 chip), pH 7.4, bivalent analyte fit (kd1)
# Experimental: as §2
# mouse serum albumin [11] = biological target: T2, mouse serum albumin; assay: SPR Biacore 8K+, MSA immobilized (C1 chip), pH 6.0, bivalent analyte fit (KD1)
# Experimental: as §2
# mouse serum albumin [12] = biological target: T2, mouse serum albumin; assay: SPR Biacore 8K+, MSA immobilized (C1 chip), pH 6.0, bivalent analyte fit (ka1)
# Experimental: as §2
# mouse serum albumin [13] = biological target: T2, mouse serum albumin; assay: SPR Biacore 8K+, MSA immobilized (C1 chip), pH 6.0, bivalent analyte fit (kd1)
# Experimental: as §2
# mouse serum albumin [14] = biological target: T2, mouse serum albumin; assay: SPR Biacore 8K+, MSA immobilized (C1 chip), pH 7.4, bivalent analyte fit (KD1)
# Experimental: as §2
# mouse serum albumin [15] = biological target: T2, mouse serum albumin; assay: SPR Biacore 8K+, MSA immobilized (C1 chip), pH 7.4, bivalent analyte fit (ka1)
# Experimental: as §2
# mouse serum albumin [16] = biological target: T2, mouse serum albumin; assay: SPR Biacore 8K+, MSA immobilized (C1 chip), pH 7.4, bivalent analyte fit (kd1)
# Experimental: as §2
Kd (human serum albumin [1]) [nM],koff (human serum albumin [1]) [s⁻¹],kon (human serum albumin [1]) [M⁻¹ s⁻¹],Kd (human serum albumin [2]) [nM],koff (human serum albumin [2]) [s⁻¹],kon (human serum albumin [2]) [M⁻¹ s⁻¹],Kd (mouse serum albumin [3]) [nM],koff (mouse serum albumin [3]) [s⁻¹],kon (mouse serum albumin [3]) [M⁻¹ s⁻¹],Kd (mouse serum albumin [4]) [nM],koff (mouse serum albumin [4]) [s⁻¹],kon (mouse serum albumin [4]) [M⁻¹ s⁻¹],Kd (human serum albumin [5]) [nM],kon (human serum albumin [6]) [M⁻¹ s⁻¹],koff (human serum albumin [7]) [s⁻¹],Kd (human serum albumin [8]) [nM],kon (human serum albumin [9]) [M⁻¹ s⁻¹],koff (human serum albumin [10]) [s⁻¹],Kd (mouse serum albumin [11]) [nM],kon (mouse serum albumin [12]) [M⁻¹ s⁻¹],Binder,further results
0.69,0.000593,853000,1.37,0.000809,592000,6.02,0.00618,1.03e+06,9.09,0.00697,767000,,,,,,,,,"ALB00223 (VHH, also called ALB00223-A; Alb223) VHH: EVQLVESGGGVVQPGGSLRLSCAASGFTFRSFGMSWVRQAPGKGPEWVSSISGSGSDTLYADSVKGRFTISRDNSKNTLYLQMNSLRPEDTALYYCTIGGSLSRSSQGTLVTVSS",
,,,,,,,,,,,,8.8,180000,0.0016,9.9,160000,0.0016,100,58000,"T026301365 (VHH, not shown: large carriers; small tags and cut ends, Tetravalent ISVD fusion protein made in P. pastoris; X and Y are undisclosed target ISVDs; also called X-9GS-Y-9GS-ALB23002-35GS-Alb223) EVQLVESGGGVVQPGGSLRLSCAASGFTFRSFGMSWVRQAPGKGPEWVSSISGSGSDTLYADSVKGRFTISRDNSKNTLYLQMNSLRPEDTALYYCTIGGSLSRSSQGTLVTVSSGGGGSGGGGSGGGGSGGGGSGGGGSGGGGSGGGGSEVQLVESGGGVVQPGGSLRLSCAASGFTFRSFGMSWVRQAPGKGPEWVSSISGSGSDTLYADSVKGRFTISRDNSKNTLYLQMNSLRPEDTALYYCTIGGSLSRSSQGTLVTVSSA",koff (mouse serum albumin [13]): 0.0059 s⁻¹; Kd (mouse serum albumin [14]): 140 nM; kon (mouse serum albumin [15]): 32000 M⁻¹ s⁻¹; koff (mouse serum albumin [16]): 0.0043 s⁻¹
0.512,0.000388,759000,0.865,0.000461,533000,1.61,0.00164,1.02e+06,1.96,0.00167,854000,,,,,,,,,"T032200003 (VHH, also called ALB23002-35GS-ALB23002; bivalent ALB23002 construct) EVQLVESGGGVVQPGGSLRLSCAASGFTFRSFGMSWVRQAPGKGPEWVSSISGSGSDTLYADSVKGRFTISRDNSKNTLYLQMNSLRPEDTALYYCTIGGSLSRSSQGTLVTVSSGGGGSGGGGSGGGGSGGGGSGGGGSGGGGSGGGGSEVQLVESGGGVVQPGGSLRLSCAASGFTFRSFGMSWVRQAPGKGPEWVSSISGSGSDTLYADSVKGRFTISRDNSKNTLYLQMNSLRPEDTALYYCTIGGSLSRSSQGTLVTVSS",
,,,,,,,,,,,,9,170000,0.0015,12,120000,0.0015,210,190000,"T026301360 (VHH, not shown: large carriers; small tags and cut ends, Tetravalent ISVD fusion protein made in P. pastoris; X and Y are undisclosed target ISVDs; also called X-9GS-Y-9GS-ALB23002-9GS-Alb223; X-Y-Alb23002-Alb223) EVQLVESGGGVVQPGGSLRLSCAASGFTFRSFGMSWVRQAPGKGPEWVSSISGSGSDTLYADSVKGRFTISRDNSKNTLYLQMNSLRPEDTALYYCTIGGSLSRSSQGTLVTVSSGGGGSGGGSEVQLVESGGGVVQPGGSLRLSCAASGFTFRSFGMSWVRQAPGKGPEWVSSISGSGSDTLYADSVKGRFTISRDNSKNTLYLQMNSLRPEDTALYYCTIGGSLSRSSQGTLVTVSSA",koff (mouse serum albumin [13]): 0.04 s⁻¹; Kd (mouse serum albumin [14]): 210 nM; kon (mouse serum albumin [15]): 170000 M⁻¹ s⁻¹; koff (mouse serum albumin [16]): 0.034 s⁻¹
